Series [1] is described as follows: HP-SEC, PBS pH 7.4 as mobile phase; Fc:Fc self-oligomerization.
Series [2] in a line: HP-SEC as in Example 20; Fc:Fc self-oligomerization.
A short description of series [3]: HP-SEC, 0.1 M Na2SO4/0.1 M sodium phosphate pH 6.8; Fc:Fc self-oligomerization.
Series [4] in a line: HP-SEC, 0.15 M NaCl/0.1 M citrate pH 6.8; Fc:Fc self-oligomerization.
A short description of series [5]: HP-SEC, 0.15 M NaCl/0.1 M citrate pH 5.0; Fc:Fc self-oligomerization.
Series [6] in a line: HP-SEC, 0.1 M Na2SO4/0.1 M sodium phosphate pH 6.8 (Example 23); Fc:Fc self-oligomerization.
The nature of series [7]: HP-SEC as in Example 20, fraction of peak area; Fc:Fc self-oligomerization.

The record followed here is patent publication US20150175707.

B1: IgG1-005-E345R/E430G/S440Y (protein)
chain: ASTKGPSVFPLAPSSKSTSGGTAALGCLVKDYFPEPVTVSWNSGALTSGVHTFPAVLQSSGLYSLSSVVTVPSSSLGTQTYICNVNHKPSNTKVDKRVEPKSCDKTHTCPPCPAPELLGGPSVFLFPPKPKDTLMISRTPEVTCVVVDVSHEDPEVKFNWYVDGVEVHNAKTKPREEQYNSTYRVVSVLTVLHQDWLNGKEYKCKVSNKALPAPIEKTISKAKGQPRRPQVYTLPPSREEMTKNQVSLTCLVKGFYPSDIAVEWESNGQPENNYKTTPPVLDSDGSFFLYSKLTVDKSRWQQGNVFSCSVMHGALHNHYTQKYLSLSPGK
In the case of B1, in series [1], the “% multimers (HP-SEC)” value was “IgG1-005-RGY (84% multimers)”. Also, in series [2], the “% multimeric (HP-SEC)” value is given as “IgG1-005-RGY (79.2% multimeric)”. Further, in series [3], the “fraction monomeric species (HP-SEC)” value is reported as 21% of the population eluted in a peak observed at the expected elution time for a monomeric species and the “fraction oligomer (HP-SEC)” value is recorded as “a large fraction oligomer which was estimated at 79%”. Besides, the “oligomerization (HP-SEC)” value in series [4] is reported as “in citrate pH 6.8 the antibody displayed 84% oligomerization”. Moreover, in series [5], the “fraction monomeric species (HP-SEC)” value is >99% of the protein eluting as a monomeric species and the “fraction multimer (HP-SEC)” value is listed as “The fraction multimer dropped to less than 1%”. Further, in series [6], the “fraction monomeric species (HP-SEC)” value is on record as 23% of the population eluted as a monomeric species and the “fraction oligomer (HP-SEC)” value is “a fraction oligomer of 77%”.

B2: IgG1-005-E345R/E430G/Y436I/S440K (protein)
chain: ASTKGPSVFPLAPSSKSTSGGTAALGCLVKDYFPEPVTVSWNSGALTSGVHTFPAVLQSSGLYSLSSVVTVPSSSLGTQTYICNVNHKPSNTKVDKRVEPKSCDKTHTCPPCPAPELLGGPSVFLFPPKPKDTLMISRTPEVTCVVVDVSHEDPEVKFNWYVDGVEVHNAKTKPREEQYNSTYRVVSVLTVLHQDWLNGKEYKCKVSNKALPAPIEKTISKAKGQPRRPQVYTLPPSREEMTKNQVSLTCLVKGFYPSDIAVEWESNGQPENNYKTTPPVLDSDGSFFLYSKLTVDKSRWQQGNVFSCSVMHGALHNHITQKKLSLSPGK
B2: the “% multimers (HP-SEC)” value in series [1] was “IgG1-005-RGIK (1.8% multimers)”.

B3: IgG1-005-E345R/E430G/S440K (protein)
chain: ASTKGPSVFPLAPSSKSTSGGTAALGCLVKDYFPEPVTVSWNSGALTSGVHTFPAVLQSSGLYSLSSVVTVPSSSLGTQTYICNVNHKPSNTKVDKRVEPKSCDKTHTCPPCPAPELLGGPSVFLFPPKPKDTLMISRTPEVTCVVVDVSHEDPEVKFNWYVDGVEVHNAKTKPREEQYNSTYRVVSVLTVLHQDWLNGKEYKCKVSNKALPAPIEKTISKAKGQPRRPQVYTLPPSREEMTKNQVSLTCLVKGFYPSDIAVEWESNGQPENNYKTTPPVLDSDGSFFLYSKLTVDKSRWQQGNVFSCSVMHGALHNHYTQKKLSLSPGK
For the protein B3, in series [1], the “% multimers (HP-SEC)” value is recorded as “IgG1-005-RGK (2.2% multimers)”.

B4: IgG1-M1-RGY (C. albicans mannan antibody M1g1 with E345R/E430G/S440Y) (protein)
chain: ASTKGPSVFPLAPSSKSTSGGTAALGCLVKDYFPEPVTVSWNSGALTSGVHTFPAVLQSSGLYSLSSVVTVPSSSLGTQTYICNVNHKPSNTKVDKRVEPKSCDKTHTCPPCPAPELLGGPSVFLFPPKPKDTLMISRTPEVTCVVVDVSHEDPEVKFNWYVDGVEVHNAKTKPREEQYNSTYRVVSVLTVLHQDWLNGKEYKCKVSNKALPAPIEKTISKAKGQPRRPQVYTLPPSREEMTKNQVSLTCLVKGFYPSDIAVEWESNGQPENNYKTTPPVLDSDGSFFLYSKLTVDKSRWQQGNVFSCSVMHGALHNHYTQKYLSLSPGK
As for B4, the “fraction oligomer (HP-SEC)” value in series [2] is “IgG1-M1-RGY (74.5%)”.

B5: IgG1-005-E345R/E430G/K439E/S440Y (protein)
chain: ASTKGPSVFPLAPSSKSTSGGTAALGCLVKDYFPEPVTVSWNSGALTSGVHTFPAVLQSSGLYSLSSVVTVPSSSLGTQTYICNVNHKPSNTKVDKRVEPKSCDKTHTCPPCPAPELLGGPSVFLFPPKPKDTLMISRTPEVTCVVVDVSHEDPEVKFNWYVDGVEVHNAKTKPREEQYNSTYRVVSVLTVLHQDWLNGKEYKCKVSNKALPAPIEKTISKAKGQPRRPQVYTLPPSREEMTKNQVSLTCLVKGFYPSDIAVEWESNGQPENNYKTTPPVLDSDGSFFLYSKLTVDKSRWQQGNVFSCSVMHGALHNHYTQEYLSLSPGK
For B5, in series [1], the “% multimers (HP-SEC)” value is reported as “IgG1-005-RGEY (2.7% multimers)”.

B6: Fc-RGY (IgG1m(f) Fc fragment with E345R, E430G and S440Y) (protein)
chain: EPKSCDKTHTCPPCPAPELLGGPSVFLFPPKPKDTLMISRTPEVTCVVVDVSHEDPEVKFNWYVDGVEVHNAKTKPREEQYNSTYRVVSVLTVLHQDWLNGKEYKCKVSNKALPAPIEKTISKAKGQPRRPQVYTLPPSREEMTKNQVSLTCLVKGFYPSDIAVEWESNGQPENNYKTTPPVLDSDGSFFLYSKLTVDKSRWQQGNVFSCSVMHGALHNHYTQKYLSLSPGK
For the protein B6, in series [7], the “fraction monomers (HP-SEC)” value is recorded as “approximately 28% monomers” and the “fraction oligomers (HP-SEC)” value is 72% oligomers distributed over multiple states.
